Patent publication US20150376269A1 (Regeneron, published 2015)
Residue numbers refer to the chain shown, from its start. Names and notes keep the numbering of the source.

B1: apoL1 peptide (SEQ ID NO: 297) (peptide)
peptide: VYESKHLHEGAKSETAEELKKVAQELEEKLNILNNNYKILQADQEL
notes: Peptide of human apolipoprotein L1 used in the H/D exchange experiment
B2: H2aM10204N (antibody, V domains shown)
VH: QVHLVQSGAEVKKPGSSVKVSCKASGGTFSNYAISWVRQAPGQGLEWMGGIIPFSGSATYAQNFQGRITITTDESTRTAYMELNGLRSEDTAVYYCARWFSGYGGDFDYWGQGTLVTVSS
VL: AIQMTQSPSSLSASVGDRVTITCRASQDIKNDLGWYQQKPGKAPKLLIYAASTLQSGVPSRFSGSGSGTHFTLTLSSLQPEDFATYFCLQDYTFPRTFGQGTKVEIK
notes: Chimeric antibody, human variable domains and mouse constant domains (mouse Fc, prefix H2aM); also called H2M10204N
B3: H2aM10285N (antibody, V domains shown)
VH: QVQLVQSGAEVKKPGSSVKVSCKASGGTFTNFAISWVRQAPGLGLEWMGGIIPFVGTATYEQKFQGRVSITADESTRTAYMELSSLRYDDTAVYYCARWFSGSGGDFDYWGQGTLVTVSS
VL: B2 VL with D28G, K30G, K39R, P40R, K42T, T53S, H70D, L75I, F87Y, Y92F
notes: Chimeric antibody, human variable domains and mouse constant domains (mouse Fc, prefix H2aM); also called H2M10285N
B4: H1H10067P (antibody, V domains shown)
VH: QVQLQESGPGLVKPSQTLSLTCIVSGGSISSGDYYWNWIRQHPGKGLEWIGDIYHSGDTYYNPSLKSRVTISLDTSKNQFSLKLSSLTAADTAVYYCARDRIVATGGGMDVWGQGTTVTVSS
VL: DIQMTQSPSTLSASVGDRVTITCRASQSISSWLAWYQRKPGKAPNLLIYRSSSLESGVPSRFSGSGSGTEFTLTISSLQADDFVIYYCQQYNSYPYTFGQGTKLEIK
notes: Fully human antibody with human IgG1 Fc (prefix H1H)
B5: H1H10069P (antibody, V domains shown)
VH: QVQLQESGPGLVKPSETLSLTCSVSGGSFTNYYWSWIRQPPGKGLEWIGSVFYSGTTNYNPSLQSRVTLSIETSKNQFSLRLNSVTAADTAVYYCARDQGAAALDYWGQGTLVTVSS
VL: DIQMTQSPSTLSASVGDRLTITCRASQSINNWLAWYQQKPGKAPKLLIYKASNLESGVPSRFSGSGSGTEFTLTISNLQPDDFATYYCQQYNSFFLTFGGGTKVEIK
notes: as for B4
B6: H1H10041P (antibody, V domains shown)
VH: QVQLVQSGAEVRKPGSSMKVSCATSGGNFRSYTINWVRQAPGQGLEWMGGVFPAVGTRIYAQKFQGRVTISTDESTTIAYMELNSLVPEDTAVYYCARSFNSPFDFWDQGTLVTVSS
VL: AIQMTQSPSSLSASVGDRVTLTCRASQDIRNDLHWFQQTPGKAPRLLIYSASNLQSGVPSRFSGTGSGTDFTLTFSSLQPEDFATYYCLQDYSYPYTFGQGTKLEIK
notes: as for B4
B7: H1H10059P (antibody, V domains shown)
VH: QVQLVQSGAEVKKPGASVKVSCKAAGFTFIGYYIHWVRQAPGQGLEWMGWINSNSGDKDSAPKFQDRVTMTRDTSISTAYMELSRLRSDDTAVYFCAREGYNFGHFDYWGQGTLVTVSS
VL: DIVMTQTPLSSPVTLGQPASISCRSSQSLVHSDGNTYLSWLQQRPGQPPRLLIYKISNRLSGVPDRFSGSGAGTDFTLKISRVEGEDVGVYYCMQGTQFPRTFGQGTKVEIK
notes: as for B4
B8: H1H10061P (antibody, V domains shown)
VH: QVQLVESGGGVVQPGNSLRLSCAASGFTFSAYGMHWVRQAPGKGLEWVAVISYDGSNEFYADSVKGRFTIFRDNSKNMLYLQMNSLRVEDTSIYYCAKDRGLGVYYFFYGMDVWGQGTTVTVSS
VL: DIVMTQSPDSLVVSLGERATINCKSSQSLLYSSSNNNYLTWYQQKPGRPPKLLIYWASTRESGVPDRFSGSGSGTDFTLTISSLQAEDVAIYYCQQNYITPLTFGGGTKVEIK
notes: as for B4
B9: H2bM10093N (antibody, V domains shown)
VH: EVQLVESGGGLVKPGGSLRLSCVASGFTLSGYSMNWVRQAPGKGLEWVSSISTSSSYIYYADSVQGRFTISRDNAKNSLYLQMNSLRAEDTAVYYCVRKGANWIYFDYWGQGTLVTVSS
VL: DIQMTQSPSSVSASVGDRVTITCRASQGISSLLAWFQQKPGKAPNLLIYAASSLQSGVPSRFSGSGSGTDFTLTISSLQPEDFATYYCQQAKSFPFTFGPGTKVDIK
notes: Chimeric antibody, human variable domains and mouse constant domains; also called H2aM10093N; H2M10093N

What was measured:
[1] = biological target: T1, serum resistance-associated protein (SRA) from Trypanosoma brucei rhodesiense, recombinant SRA (SEQ ID NO: … (Trypanosoma brucei rhodesiense, UniProt O96637 31-274)); experiment: H/D exchange MS, SRA-apoL1 peptide complex, pH 5.0
T1 construct: also called SRA protein
T1 sequence: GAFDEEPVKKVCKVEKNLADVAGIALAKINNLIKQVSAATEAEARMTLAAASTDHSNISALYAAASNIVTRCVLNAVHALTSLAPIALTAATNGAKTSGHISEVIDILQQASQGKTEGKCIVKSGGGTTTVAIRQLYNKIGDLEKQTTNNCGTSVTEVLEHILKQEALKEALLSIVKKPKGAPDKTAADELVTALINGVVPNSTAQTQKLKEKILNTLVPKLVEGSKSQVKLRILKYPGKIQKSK

[2] = biological target: T1, serum resistance-associated protein …; experiment: SPR, mAb captured, pH 4.5, 25C; competitor biotin-mutant apoL1 peptide
SRA.mmh [3] = biological target: T2, SRA.mmh; experiment: Octet, SRA.mmh captured on anti-Penta-His tips, mAb-1 at 50 ug/mL for 5 min, 25 C, pH 7.4
T2 construct: also called SRA.mmh (CHO)
T2 antigen: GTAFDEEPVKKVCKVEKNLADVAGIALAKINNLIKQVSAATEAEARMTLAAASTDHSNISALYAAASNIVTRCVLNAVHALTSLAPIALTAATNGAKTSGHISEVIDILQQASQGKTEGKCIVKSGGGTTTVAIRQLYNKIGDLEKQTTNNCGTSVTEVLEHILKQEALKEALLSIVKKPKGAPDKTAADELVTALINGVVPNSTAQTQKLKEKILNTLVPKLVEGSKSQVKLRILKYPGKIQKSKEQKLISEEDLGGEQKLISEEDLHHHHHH

[4] = biological target: T1, serum resistance-associated protein …; experiment: SPR, mAb captured, 25C, pH 7.4
Description: (§1) Equilibrium dissociation constants (KD) values for SRA binding to selected purified anti-SRA monoclonal antibodies were determined using a real-time surface plasmon resonance biosensor assay on a Biacore T200 instrument. […] SRA binding to the captured monoclonal antibodies was monitored for 4 min while the dissociation of mAb bound SRA was monitored for 7 min. Two different assays formats were adopted to characterize kinetics of SRA binding—(i) regular kinetics and (ii) pH4.5 chase. Regular kinetics experiments were performed using pH7.4 buffer as the running buffer and both the association and dissociation was performed in pH7.4. For the chase format, association and dissociation were performed in pH7.4 buffer and pH4.5 buffer respectively.
(§2) Kinetic association (kₐ) and dissociation (kd) rate constants were determined by processing and fitting the data to a 1:1 binding model using Scrubber 2.0c curve fitting software. Only the dissociation rate (kd) was calculated for the pH4.5 chase experiment. Binding dissociation equilibrium constants (KD) and dissociative half-lives (t½) were calculated from the kinetic rate constants as:

[5] = biological target: T1, serum resistance-associated protein …; experiment: SPR, mAb captured, pH 4.5, 25C; competitor biotin-apoL1 peptide
SRA.mmh [6] = biological target: T2, SRA.mmh; experiment: Octet, mAb-2 at 50 ug/mL on captured SRA.mmh after negative control α-PRLR H1H6800P as mAb-1 (row 32 (-))
[7] = biological target: T1, serum resistance-associated protein …; experiment: SPR, 25C, t1/2 pH 7.4 over pH 4.5
Description: as §1, §2

[8] = biological target: T1, serum resistance-associated protein …; experiment: SPR, mAb captured, 50 nM SRA, pH 4.5, 25C
[9] = biological target: T1, serum resistance-associated protein …; experiment: SPR, mAb captured, 25C, assoc. pH 7.4, dissoc. pH 4.5
Description: as §1, §2

[10] = biological target: T1, serum resistance-associated protein …; experiment: SPR, mAb captured, 25C, pH 7.4; pH 7.4, 25 C
Description: as §1, §2

Binder	binding result [1]	50 nM SRA + 5 uM mutant apoL1 peptide binding (RU) [2] [RU]	% Blocking, Mutant apoL1 peptide [2] [%]	50 ug/mL mAb 1 Bound (nm) (SRA.mmh [3])	Kd [4] [nM]	kon [4] [M⁻¹ s⁻¹]	t ½ [4] [h]	50 nM SRA + 5 uM apoL1 peptide binding (RU) [5] [RU]	% Blocking, apoL1 peptide [5] [%]	Binding of mAb-2 to SRA Pre-complexed with mAb-1 (SRA.mmh [6])	t ½ ratio pH 7.4/pH 4.5 [7]	50 nM SRA binding (RU) [8] [RU]	t ½ [9] [h]	koff [10] [s⁻¹]
B1	binds	–	–	–	–	–	–	–	–	–	–	–	–	–
B2	–	128	9	1.46	≤ 0.0899	556000	≥ 3.85	3	98	1.08	≥ 95	140	0.0333	–
B3	–	111	8	1.53	0.138	1.03e+06	1.37	8	94	1.24	124	120	0.0117	–
B4	–	82	4	1.52	≤ 0.0557	897000	≥ 3.85	98	-16	1.41	≥ 4	85	0.933	–
B5	–	52	5	1.61	≤ 0.0785	636000	≥ 3.85	62	-13	1.37	≥ 2	54	1.87	–
B6	–	83	5	1.69	≤ 0.0277	1.8e+06	≥ 3.85	3	97	1.57	≥ 1	88	2.75	–
B7	–	65	11	1.24	≤ 0.0318	1.57e+06	≥ 3.85	-9	100	1.17	≥ 6	73	0.617	–
B8	–	75	5	1.53	≤ 0.0308	1.62e+06	≥ 3.85	-5	100	1.53	≥ 2	79	1.82	–
B9	–	122	12	1.48	0.948	521000	0.383	4	97	1.32	20	138	0.02	0.000494
